Source: paper PMC5755706 (Nature structural & molecular biology, 2017)

Experiments:
human TRF2^TRFH (human) = human TRF2^TRFH (human) (UniProt Q15554); assay: flow cytometry protein interaction assay
GST-TRF1^TRFH = biological target: T1, GST-TRF1^TRFH (human, UniProt P54274 62-265); assay: pull-down
T1 sequence: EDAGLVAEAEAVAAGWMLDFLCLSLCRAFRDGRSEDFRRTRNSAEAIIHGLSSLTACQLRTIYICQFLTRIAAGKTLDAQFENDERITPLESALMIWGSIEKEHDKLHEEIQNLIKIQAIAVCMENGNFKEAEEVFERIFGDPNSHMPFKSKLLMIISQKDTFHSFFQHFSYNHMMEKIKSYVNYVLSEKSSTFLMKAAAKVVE

crystal structure = biological target: the molecule itself; assay: crystal structure
[1] = biological target: T2, MBP-tagged TERB1^TRFB – TERB2^1-107 (human, UniProt Q8NA31;Q8NHR7); assay: pull-down
T2 sequence 1: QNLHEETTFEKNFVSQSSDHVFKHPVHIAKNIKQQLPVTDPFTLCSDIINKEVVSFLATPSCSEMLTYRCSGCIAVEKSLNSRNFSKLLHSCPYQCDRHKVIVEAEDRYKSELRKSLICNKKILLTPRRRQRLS
T2 sequence 2: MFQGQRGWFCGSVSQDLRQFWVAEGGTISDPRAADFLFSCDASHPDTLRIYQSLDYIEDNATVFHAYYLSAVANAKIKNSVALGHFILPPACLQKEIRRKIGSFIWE

Sequence of human TRF2^TRFH (human) (Q15554 whole entry): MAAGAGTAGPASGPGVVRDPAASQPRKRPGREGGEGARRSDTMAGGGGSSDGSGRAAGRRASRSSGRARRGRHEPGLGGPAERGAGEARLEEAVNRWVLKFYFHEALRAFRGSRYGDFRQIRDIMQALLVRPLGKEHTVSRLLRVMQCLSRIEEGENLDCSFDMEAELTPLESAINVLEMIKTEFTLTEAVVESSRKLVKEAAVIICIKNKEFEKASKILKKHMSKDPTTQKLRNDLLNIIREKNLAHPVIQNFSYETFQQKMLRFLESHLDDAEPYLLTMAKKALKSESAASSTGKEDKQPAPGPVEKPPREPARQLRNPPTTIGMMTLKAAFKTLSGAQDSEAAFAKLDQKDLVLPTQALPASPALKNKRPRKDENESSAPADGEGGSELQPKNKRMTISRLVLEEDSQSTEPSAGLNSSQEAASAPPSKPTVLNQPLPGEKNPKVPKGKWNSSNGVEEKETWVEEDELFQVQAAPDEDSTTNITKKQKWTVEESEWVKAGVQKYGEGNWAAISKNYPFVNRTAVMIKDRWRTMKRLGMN

His-Smt3-TERB1^TBM T648A (from UniProt Q8NA31 643-656) (peptide)
relative IC50 (normalized to TERB1^TBM WT) (human TRF2^TRFH (human)): 0.4

His-Smt3-TERB1^TBM I645F (from UniProt Q8NA31 643-656) (peptide)
relative IC50 (normalized to TERB1^TBM WT) (human TRF2^TRFH (human)): 2.6

His-Smt3-TERB1^TBM I645E (from UniProt Q8NA31 643-656) (peptide)
relative IC50 (normalized to TERB1^TBM WT) (human TRF2^TRFH (human)): 2.25

His-Smt3-TERB1^TBM WT (from UniProt Q8NA31 643-656) (peptide)
relative IC50 (normalized to TERB1^TBM WT) (human TRF2^TRFH (human)): 1

His-Smt3-TERB1^TBM R652E (from UniProt Q8NA31 643-656) (peptide)
relative IC50 (normalized to TERB1^TBM WT) (human TRF2^TRFH (human)): 1.05

B1: TERB1^TRFB - TERB2^1-107 complex WT (complex)
chain 1: QNLHEETTFEKNFVSQSSDHVFKHPVHIAKNIKQQLPVTDPFTLCSDIINKEVVSFLATPSCSEMLTYRCSGCIAVEKSLNSRNFSKLLHSCPYQCDRHKVIVEAEDRYKSELRKSLICNKKILLTPRRRQRLS
chain 2: MFQGQRGWFCGSVSQDLRQFWVAEGGTISDPRAADFLFSCDASHPDTLRIYQSLDYIEDNATVFHAYYLSAVANAKIKNSVALGHFILPPACLQKEIRRKIGSFIWE
relative IC50 (normalized to TERB1^TRFB - TERB2^1-107 WT) (human TRF2^TRFH (human)): 1

B2: TERB1^TRFB - TERB2^1-107 I645E (complex)
chain 1: QNLHEETTFEKNFVSQSSDHVFKHPVHIAKNIKQQLPVTDPFTLCSDIINKEVVSFLATPSCSEMLTYRCSGCIAVEKSLNSRNFSKLLHSCPYQCDRHKVIVEAEDRYKSELRKSLICNKKELLTPRRRQRLS
chain 2: MFQGQRGWFCGSVSQDLRQFWVAEGGTISDPRAADFLFSCDASHPDTLRIYQSLDYIEDNATVFHAYYLSAVANAKIKNSVALGHFILPPACLQKEIRRKIGSFIWE
relative IC50 (normalized to TERB1^TRFB - TERB2^1-107 WT) (human TRF2^TRFH (human)): 0.4

B3: TERB1^TRFB - TERB2^1-107 I645F (complex)
chain 1: QNLHEETTFEKNFVSQSSDHVFKHPVHIAKNIKQQLPVTDPFTLCSDIINKEVVSFLATPSCSEMLTYRCSGCIAVEKSLNSRNFSKLLHSCPYQCDRHKVIVEAEDRYKSELRKSLICNKKFLLTPRRRQRLS
chain 2: MFQGQRGWFCGSVSQDLRQFWVAEGGTISDPRAADFLFSCDASHPDTLRIYQSLDYIEDNATVFHAYYLSAVANAKIKNSVALGHFILPPACLQKEIRRKIGSFIWE
relative IC50 (normalized to TERB1^TRFB - TERB2^1-107 WT) (human TRF2^TRFH (human)): 0.8

B4: His-Smt3-TERB1^TBM WT (peptide)
chain: KKILLTPRRRQRLS
binding result (GST-TRF1^TRFH): binds

B5: His-Smt3-TERB1^TBM I645F (peptide)
chain: KKFLLTPRRRQRLS
binding result (GST-TRF1^TRFH): binds

B6: human TRF1^TRFH (TRF homology domain of TRF1, aa 62-265) (domain or fragment)
chain: EDAGLVAEAEAVAAGWMLDFLCLSLCRAFRDGRSEDFRRTRNSAEAIIHGLSSLTACQLRTIYICQFLTRIAAGKTLDAQFENDERITPLESALMIWGSIEKEHDKLHEEIQNLIKIQAIAVCMENGNFKEAEEVFERIFGDPNSHMPFKSKLLMIISQKDTFHSFFQHFSYNHMMEKIKSYVNYVLSEKSSTFLMKAAAKVVE
modifications: biotin (biotin maleimide) on cysteines in the flow-cytometry bead assays; unlabelled in the pull-downs and the crystal
stoichiometry N (crystal structure): 2
binding result [1]: binds
